Test results: patent US20200055939A1 (Genentech, published 2020)

T1: H290A
T1 construct: % monomer 90.37; also called MICA*008.mIgG2a H290A
T1 chain: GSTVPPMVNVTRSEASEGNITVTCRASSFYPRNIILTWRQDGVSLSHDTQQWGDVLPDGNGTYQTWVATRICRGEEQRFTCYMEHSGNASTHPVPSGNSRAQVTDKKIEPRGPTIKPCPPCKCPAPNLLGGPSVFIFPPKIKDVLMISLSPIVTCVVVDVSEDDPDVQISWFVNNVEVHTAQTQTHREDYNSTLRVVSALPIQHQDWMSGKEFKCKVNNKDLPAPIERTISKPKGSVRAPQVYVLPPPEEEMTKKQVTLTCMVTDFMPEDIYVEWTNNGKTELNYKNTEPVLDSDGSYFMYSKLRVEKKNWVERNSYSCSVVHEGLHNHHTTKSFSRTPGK

T2: S297A
T2 construct: % monomer 89.24; also called MICA*008.mIgG2a S297A
T2 chain: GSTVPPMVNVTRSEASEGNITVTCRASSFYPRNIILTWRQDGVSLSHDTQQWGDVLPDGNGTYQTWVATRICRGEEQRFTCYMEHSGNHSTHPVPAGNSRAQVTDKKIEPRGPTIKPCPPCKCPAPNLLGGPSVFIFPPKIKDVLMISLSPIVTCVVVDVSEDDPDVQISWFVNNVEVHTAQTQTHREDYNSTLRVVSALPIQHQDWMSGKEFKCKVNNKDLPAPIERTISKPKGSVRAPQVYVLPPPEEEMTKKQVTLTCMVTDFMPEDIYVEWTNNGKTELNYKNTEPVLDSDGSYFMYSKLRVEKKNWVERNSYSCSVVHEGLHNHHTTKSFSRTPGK

T3: I236A
T3 construct: % monomer 92.49; also called MICA*008.mIgG2a I236A
T3 chain: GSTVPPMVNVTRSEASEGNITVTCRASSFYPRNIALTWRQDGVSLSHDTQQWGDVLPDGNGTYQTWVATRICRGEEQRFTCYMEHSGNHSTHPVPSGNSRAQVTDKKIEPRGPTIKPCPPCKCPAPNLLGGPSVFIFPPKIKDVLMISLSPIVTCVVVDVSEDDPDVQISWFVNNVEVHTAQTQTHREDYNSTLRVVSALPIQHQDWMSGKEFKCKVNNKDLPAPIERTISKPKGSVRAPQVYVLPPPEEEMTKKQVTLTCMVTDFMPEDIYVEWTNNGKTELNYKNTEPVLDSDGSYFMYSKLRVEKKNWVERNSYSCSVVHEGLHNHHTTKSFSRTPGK

T4: E285A
T4 construct: % monomer 83.78; also called MICA*008.mIgG2a E285A
T4 chain: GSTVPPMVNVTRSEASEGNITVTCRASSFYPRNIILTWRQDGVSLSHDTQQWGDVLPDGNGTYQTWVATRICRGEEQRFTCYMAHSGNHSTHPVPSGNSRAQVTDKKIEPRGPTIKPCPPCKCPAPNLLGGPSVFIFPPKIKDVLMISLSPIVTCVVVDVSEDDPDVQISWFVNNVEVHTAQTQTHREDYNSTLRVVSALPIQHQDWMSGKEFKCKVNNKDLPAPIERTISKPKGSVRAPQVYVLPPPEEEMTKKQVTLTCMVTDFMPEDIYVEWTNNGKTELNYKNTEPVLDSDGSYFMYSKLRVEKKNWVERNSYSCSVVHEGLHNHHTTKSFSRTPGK

T5: S245A
T5 construct: % monomer 93.96; also called MICA*008.mIgG2a S245A
T5 chain: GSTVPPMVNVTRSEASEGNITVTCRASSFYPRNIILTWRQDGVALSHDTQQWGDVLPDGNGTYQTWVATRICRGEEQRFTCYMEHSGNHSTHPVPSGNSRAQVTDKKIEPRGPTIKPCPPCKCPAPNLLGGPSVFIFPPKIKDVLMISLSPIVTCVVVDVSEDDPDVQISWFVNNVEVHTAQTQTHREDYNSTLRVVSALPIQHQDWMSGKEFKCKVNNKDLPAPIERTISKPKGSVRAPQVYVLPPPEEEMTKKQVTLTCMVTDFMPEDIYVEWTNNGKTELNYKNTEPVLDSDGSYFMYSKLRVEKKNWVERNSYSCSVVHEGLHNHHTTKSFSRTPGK

T6: E277A
T6 construct: % monomer 81.58; also called MICA*008.mIgG2a E277A
T6 chain: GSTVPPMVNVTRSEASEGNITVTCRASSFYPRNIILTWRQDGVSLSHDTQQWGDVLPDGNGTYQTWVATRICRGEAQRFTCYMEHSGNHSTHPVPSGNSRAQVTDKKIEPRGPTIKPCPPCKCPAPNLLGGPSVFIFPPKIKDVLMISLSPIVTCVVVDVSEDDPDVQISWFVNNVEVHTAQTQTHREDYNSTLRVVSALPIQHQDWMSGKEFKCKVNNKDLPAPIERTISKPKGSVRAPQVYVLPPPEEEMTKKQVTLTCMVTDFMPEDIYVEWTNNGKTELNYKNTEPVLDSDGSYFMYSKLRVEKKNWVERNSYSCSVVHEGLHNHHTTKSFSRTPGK

T7: S287A
T7 construct: % monomer 90.34; also called MICA*008.mIgG2a S287A
T7 chain: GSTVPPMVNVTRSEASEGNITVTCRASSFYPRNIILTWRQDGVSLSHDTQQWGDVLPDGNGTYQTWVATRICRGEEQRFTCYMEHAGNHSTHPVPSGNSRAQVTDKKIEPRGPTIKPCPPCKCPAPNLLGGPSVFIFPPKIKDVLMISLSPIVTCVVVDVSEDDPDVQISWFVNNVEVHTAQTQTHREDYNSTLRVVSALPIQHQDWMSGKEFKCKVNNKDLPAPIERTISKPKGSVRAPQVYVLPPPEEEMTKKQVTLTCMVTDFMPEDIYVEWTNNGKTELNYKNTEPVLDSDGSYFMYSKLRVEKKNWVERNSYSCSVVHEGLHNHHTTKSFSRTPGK


Columns and labels:
Assay in all cases: SPR, Fab over captured MICA*008.mIgG2a Ala variant; KD relative to wild type
[1] = target: T1, H290A
[2] = target: T2, S297A
[3] = target: T3, I236A
[4] = target: T4, E285A
[5] = target: T5, S245A
[6] = target: T6, E277A
[7] = target: T7, S287A

| fold-decrease in affinity [1] | fold-decrease in affinity [2] | fold-decrease in affinity [3] | fold-decrease in affinity [4] | fold-decrease in affinity [5] | fold-decrease in affinity [6] | fold-decrease in affinity [7] | Binder |
| --- | --- | --- | --- | --- | --- | --- | --- |
| 0.8 | 1.2 | 0.9 | 0.9 | 1 | 1.1 | 1 | 2E5.2.3 Fab (Fab, V domains shown) VH: QGQMQQSGAELVKPGASVKLSCKTSGFTFSDNYISWLKQKPGQSLEWIAWIYAGTGGTSYNQKFTAKAQLTVDTSSSTAYMQFSSLTTEDSAIYYCARHDYYGTSGAWFAYWGQGTLVTVSA VL: DVLMTQTPLSLPVSLGDQASLSCRSSQNIVHINGNTYLEWYLQKPGQSPKLLIYKVSNRFSGVPDRFSGSGSGTDFTLKISRVEAEDLGVYYCFQGSHVPWTFGGGTKVEIK |
| 8.4 | 1 | 1.4 | 3.9 | 1.2 | 2.7 | 1.1 | 6F8.7 Fab (Fab, V domains shown) VH: DVQLQGSGPGLVKPSQSLSLTCSVTGYSITNDYYWNWIRQFPGNKLEWMGFISFGGSNNYNPSLKNRISITRDTSKNQFFLKLSSVTTEDTATYYCARYDGRGAWFAYWAQGTLVTVSA VL: DIQMTQSPASLSASVGETVTITCRASGNIHNYLAWYQQKQGKSPQLLVYDAITLADGVPSRFSGSGSGTQYSLKINSLQPEDFGNYYCQHFWSFPLTFGAGTKVEIK |
| 8.8 | 1.1 | 1.2 | 7.9 | 1.6 | 1.3 | 1.3 | 7D4.6 Fab (Fab, V domains shown) VH: DVQLQESGPGLVKPSQSLSLTCTVTGYSITSDYAWNWIRQFPRNKLEWMGYINYSGTTNYNPSLKSRISITRDTSKNQFFLQLISVTTEDTATYYCSYYRYDGAWFPYWGQGTLVTVSA VL: DIQMTQSPASLSASVGETVTITCRASGNIHNYLAWYQQKQGKSPQLLVYNAIMLADGVPSRFSASGSGTQYSLKINSLQPEDFGSYYCQHFWSFPLTFGAGTKVEIK |
|  | 0.05 |  |  |  | 1.9 | 4.9 | 1D5 Fab (Fab, V domains shown, Expressed in E. coli as chimera of murine variable and human constant domains; not shown: human IgG1 CH1 constant domain; human kappa CL constant domain) VH: EIQLQQSGPELVKPGASVKVSCKASGYAFTSQNIYWVKQSHGKSLEWIGYIEPYNVVPMYNPKFKGKATLTVDKSSSSAYIHLNSLTSEDSAIYYCARSGSSNFDYWGQGTTLTVSS VL: EIILTQSPTTMAASPGEKITITCSASSSISSHYLHWYQQKSGFSPKLLIYRTSNLASGVPARFSGSGSGTSYSLTIGTMEAEDVATYYCQQGSSLPLTFGAGTKVEIK |
